In patent US20090208473A1 (RUTGERS THE STATE UNIVERSITY OF NEW JERSEY, published 2009):

Key:
[1] = biological target: the molecule itself; test: oligomerization; Western blot without DTT of GFP-MG53 mutants from C2C12 cells
From the text: These mutant constructs were transiently expressed in C2C12 myoblast cells (FIG. 22).

Molecule: MBP-MG53 (recombinant maltose-binding protein fusion protein for MG53)
- auto-ubiquitination in vitro (high molecular-mass ladders, anti-MBP immunoblot) (Ubc4): High molecular-mass ladders derived from ubiquitination were observed when MBP-MG53 was incubated with Ubc4 or UbCH5 as E2
- auto-ubiquitination in vitro (high molecular-mass ladders, anti-MBP immunoblot) (UbCH5): High molecular-mass ladders derived from ubiquitination were observed when MBP-MG53 was incubated with Ubc4 or UbCH5 as E2

B1: GFP-MG53 C242A mutant (other, mouse, UniProt Q1XH17 1-477, looked up)
chain: MSAAPGLLRQELSCPLCLQLFDAPVTAECGHSFCRACLIRVAGEPAADGTVACPCCQAPTRPQALSTNLQLSRLVEGLAQVPQGHCEEHLDPLSIYCEQDRTLVCGVCASLGSHRGHRLLPAAEAQARLKTQLPQQKMQLQEACMRKEKTVAVLEHQLVEVEETVRQFRGAVGEQLGKMRMFLAALESSLDREAERVRGDAGVALRRELSSLNSYLEQLRQMEKVLEEVADKPQTEFLMKFALVTSRLQKILSESPPPARLDIQLPVISDDFKFQVWKKMFRALMPALEELTFDPSSAHPSLVVSSSGRRVECSDQKAPPAGEDTRQFDKAVAVVAQQLLSQGEHYWEVEVGDKPRWALGVMAADASRRGRLHAVPSQGLWLLGLRDGKILEAHVEAKEPRALRTPERPPARIGLYLSFADGVLAFYDASNPDVLTPIFSFHERLPGPVYPIFDVCWHDKGKNAQPLLLVGPEQEQA
notes: the plasmid methods describe mouse MG53 cDNA; also called GFP-C242A; not shown: GFP at the N-terminus
- binding result [1]: no binding
